Laboratory results reported in patent publication US20240245805A1 (Orna Therapeutics, Inc., priority 2020, published 2024).

tested on: HEK293 cells; format: cell-based, human; conditions: circular RNA encoding Gluc with the listed IRES (UTR truncated to 675 nt) transfected into HEK293 cells; supernatant after 24 hours

Row | Molecule | Expression (luminescence from secreted Gluc protein)
1 | Hubei tombus-like virus 9 (nucleic acid, source: /note="Description of Unknown: Hubei tombus-like virus 9 sequence") DNA: GGACCATCCAGGCAGGTGTAGGCTAGTACCCTCACCTGACCTGTCGCGATGTTTGGCTTTGTGAGGCTTGTGGGAGGATCCCTTGGCCCATGCATTGCTGCTGTCATCGTGAAAAATGTTGTATGCTCGCACCTGGCGTGGAGGAAACGGCATTTGACGGATGCTAAGGAGGATTTGAAGGTCCTCAACTCCCATGCCTTATTACAAGTCCCCTTTCCTTCAAGCTTCGAGCCCACGTCTGTGACGAGCAGAGGTGAGGTTGGAGTCAAGAGGAGTCCTATTCAAGCTGTTCGCAGCAAGAACCATAAAACTTTCATTGCTCAATGGGCAAGAGCGGCTAAGGCTCGGTTCTCGTTTGCACGACAGTGTGAGCGGAGCCCTGTAAATGTCGCGGCCCTTCATCGGTGGTTTGCATCGGAGTTTAAGAAAATTGGCATGAACTTGCTCCAGGTTTCGTACGTGATCGATGAGGTTGTTGAACTTAGTTTGGAACCAACGTATGAGCGTATGGTGTCCGAAACTAAGAAGCAATTCCGTCATCGGGCACGTATGGAATACTACAACGAGAAAAAATGCCTTGAAAAGATCCACTAGGAACGC | 9.28E+04
2 | Hubei tombus-like virus 32 (nucleic acid, source: /note="Description of Unknown: Hubei tombus-like virus 32 sequence") DNA: TTCGGGTTTACCCGCGTAAGCGGCCACACTGACTGGTTGTCGGTGTTGAATTTGTATACCAGATGAGGAGACGTTACCACCGTCTCGGCAGTGCTACGTCTGGGAAAGGACTGTGATAGTGGACAGTCCTACCGTCTTTAGATACATTGCGTTGTGTATAGCCCGGGAGGGATTAACTAATAGCAACGCAATGCACACGGCGGTTCGGATTTGCTTGACTGATGGAAAGACATCTAAGTTCTAATTGAACC | 9.23E+04
3 | Hubei sobemo-like virus 3 (nucleic acid, source: /note="Description of Unknown: Hubei sobemo-like virus 3 sequence") DNA: GAGATGTTTGCGTGGGCCGTTGCGCTGCGGGCGGCCCACCTCCCTACGGGGACCGTGAGACACCGCTGGGGAAGGCCCCCACCCCCGGCCAAGGGGATCCTGCCGAGAGGCAGGAGAAAGAGGCCCAGCCCTCTGGGGCGCCTTTAGGGGTGCCTGGGAGGGAAGTACCCGAGCCGGGCGGCCGGTCGGGTGCGGCTGTGCAGTTCGAGGCTAACCGTAAGGAAGGCCTGAGCTGCCTCGGCTTGTCGGAAAGGAAGACGAAGGCACTTATCAAGGCTTTCAGGAAGCAGGAGCGCAATTACAGCGCGCGCCGTGCGGCCTGGATTAACCGCATTTGGCCG | 1.17E+05
4 | Hubei picorna-like virus 2 (nucleic acid, source: /note="Description of Unknown: Hubei picorna-like virus 2 sequence") DNA: AGCAACTTCTTTCTGAAAACTAGCTAGAGTTCGACGATCTCTCTGGCTAATGACAAATAACCAATCAAAAAGTCAAATGTTCATGTATATATATATTTAGTAGTGACCTTTATTTAGAAAAACTTTAGATGATTTATCGTCAAGTTGCCCTTTGTGAAGCGATCAGCTTTTTATATCGTTTCATTTTTGTATACGTCTTAATTGACGTTGTAAGTACGTTTTGCATACCTCACATTGAGGATAGTATCGTTTCCTGACTAAGAAGTTAAACTAGTCTACCAATAGCAACCATATAGGATATAGCTTTGTTTTTAACAAGGTTTAATCTGATCTTATGCTCTTGCTTACGGTGTTTTATGTATAGAAAAGTTTTTATAAAAACTACATAATTGTCAAAAGAAAAAGCGTTACGTACTGACGCATTTATGTTCACAGTGTGACACAAACCTTCTATATTTTGATTGTAAAATAGGCTTTGCCTGACCATTTATCAAATACAAACTGTTTCAAACGCCTCTCCGAGCCATATTGGCCGACGCGAATCGACATAACAGGGTGAGTTTACAGCTGCAGTTGCAGCCGAGGATCCACTTATTTGAGAGAGAATTACTCTTAACGAAATTTTGAAGTCACTTCTACACAGTTAAGTCTGAGTAGGCGTTATCCAAACGTAAA | 1.95E+05
5 | Hepacivirus P (nucleic acid, listed as Hepacivirus sp.) DNA: ACATGGGGGGGGGCTGACAGTGAGTACACTGTGCCAAGCAGGTGCTACGCTATGCCTAGGTGCTGCTGTAGGCCAAGGACATGTCCCAGTCATCCCAGGTGAGGGGGGGGGTTCCCCTCACCGCTGCCACTGCCTGATAGGGTCCTGCCGGAGGGTCTCGGTGTCCGGCTGTAC | 6.04E+05
6 | Harrier picornavirus 1 (nucleic acid, source: /note="Description of Unknown: Harrier picornavirus 1 sequence") DNA: GATGTGTGACGGTGTAATTACTTTCCGGATCCCACTTTCCTATTATAACTCTTTCATCCCAAGGTTAGGGAAAGAACCTGGCTCGGTACCACCAGACCCTCCGCCACGCTAGTGGACTCTCCGGAGATAACGGTACCCCCTTTGTAGTCACCTGTGCTGGTGAAGAACCACCTAGTATTGCTTGGGTGCGTGCCGCCTAGCTTCCATTTCTTCTGGAGCACTGTGCAATGAGGTTTCCCCACTTGGTAACAAGTGCCTCAGGTCCCGCAAGGATACTGTGGGGTGGTGTGACCGCAGGGAGCTGTCTCCACGGCTCCTCTAATGTTACGCCGCTATCCACAGGCCAGTGCGTGTCATCGATCCCGGATGACAGAGCTAGTATTGCGAACCCCCAAGTAAGAAAAGTGGCTAGTAACCTGATAGCTGGTGAAGAGGGTGGGTCAGTTGAGTAGATGCCCTAGAGGTACCCGAAAGGATCTGACTAGGGACCCGTGACTATACATTAGGTAAACCGGGTATAAAAACCATGAAAAACTGACCACTTTTCTTTTAACCTCTTCTTTCTTTTTATGTGTGTTAAGTGTTTTGAGTTTGGACTGTACCTTGCCCGCCTTTCTTGGATTTTCTCTATCGCTCTTCTTACACCTACTGTTATCAAGGCACTCTTTAGAGATA | 1.47E+05
7 | Kashmir bee virus: "an IRES is an IRES sequence of ... Kashmir bee virus" (nucleic acid, Kashmir bee virus) DNA: TACGTACAATTTTGACGCTTCGTTCATGCAACAATGAACTCACATGTGGCGCTCGGTAGTAACCAGAGGGGCGTCATTCCCCCGTATGGAGTGGAGAATATAAGCTACCGACTCGAGCTGTAGAATAATTCAGCAACTTATAACGAACACGAATTTTAGTCGACGAAACCATTTTAGCCTTTAATTCTATGATTTGATTATAATGATAAACAGCTCATGTAACTGTCTAAACTACATAAATACAACTGGATTACGAACCTTTAAGTAACTATCTTAGATGAAGTCTAGTAGTCTCCCAATATTTCCGTGAAAAGAATGAGGGACGAGATAGCTCTATTTAAAGACGTGAGGCTTTAAATTCTGATAAATACATTACCTGAGAATTCCTCCTTTAGGAGTTAGAATTTGAAAAGATTAGTACCTATACTTAATAGAATTTAAATATGTTAATAATGCTGAAGACAAGTATTTCGATTATTAACCTCTATATTTCTATATAAAGTATCTGTGAGTCTCAGTGGACATCACAGTAAGGTCGCAGTTAACTTGTAATCTTTTCATTCCTGTGTCGGAGCAGTGGTAATGGAGCCGGACGATTTCGCCAAAAC | 1.65E+05
8 | Jingmen picorna-like virus (nucleic acid, source: /note="Description of Unknown: Jingmen picorna-like virus sequence") DNA: TGTGTTTTTGTCAAGATAATTGTTCTGTGATTAACAGTGATTGTGGTTCGTGTAATGCGACGCAGTCAAATGCTAGTTTTGATGAAGTGTATGAGAGAGTGGAAAACTTATCTCATAAGAAGATTGAAGAGTGTGTAGATCAGGCTATTGATCGAGCTTCTAAGCTTCGTGATTACAAGCTTAATGTTCACAATGGCTCCCGACGGGAATCATCTGATCCTCTCTTTATTTCGCCCCATTCGTTGTTATCGCTTGGGGTATCTAAGTTTGTTGCGTTTGAGCAGCATCACAGTTTCGCTTCAGTTGAGTCTCTGAAGTTGCTTGCTCTGTCT | 9.32E+04
9 | Miniopterus schreibersii picornavirus 1 (nucleic acid, lipid formulation; source: /note="Description of Unknown: Miniopterus schreibersii picornavirus 1 sequence") DNA: GTTGTCGACCCGTTGCTTGGTTTAAGCATGAGGTGGATTCCCCCGATTATGTCTACCCGTTACTATGGCGGGCGGTCGTTTCAGGGTGTTTCTACTGAGGACTGCACCAAGTCTTTATCTTTTATTCTCAGATCTCCGGCTGTTTGACGCTTGTAGGACAGCAGGACTATTTTCTCTTAATCTTTTTCTACCCACTAGGGTCCTATCCTAGTGGAGGGAGGGTGCCACCCCTTCTCTCTTTAGAGAGTGCGCCTGGCGGTCTTTCCGTCTCTGGAAAAAGGAGCACATGGCATGCTACAATTGGCACAAGAAAACAAGCTTTGCGGATTCTTTCTTTGTACTAGAGGAAGCTGTAGCGACCCTGTATGGCGAGCGGACTCCCCTCTCGGCGACGAGAGCCTCTCGGGCCAAAAGCCAAGTGTTAATAGCACCCATACAGGCGGCAGTACCCCACTGCCCTTTCTCAACATACAATGACTGATGAACCACTGTTGGTTTTTCTGACACCTTTGTAGTAGGATTCCAAGGAATGTCCTGAAGGTACCCTGTTAGCTTACGCGCAGGATCTGATCAGGAGTCTCTTTACAGTGCTGTACACTGTGCAAGGGATTAAAAATTGTTTGAGGAATCCCCGAGATAGTGGTCTATCTCTTCCTATTTTGTTTTACAGACACG | 6.05E+06
